One experiment has as its target golgin A3 (UniProt Q08378). As to the kind of experiment: anti-FLAG co-IP, golgin A3 Western blot. To be noted: reference: Cα L206R, vehicle; sites S114.
The target in experiment [1] is PKA regulatory subunit IIβ, FLAG-tagged (RIIβ-FLAG) (human) (UniProt P31323). Kind of experiment: co-IP.
UniProt P31323, sequence (P31323 whole entry): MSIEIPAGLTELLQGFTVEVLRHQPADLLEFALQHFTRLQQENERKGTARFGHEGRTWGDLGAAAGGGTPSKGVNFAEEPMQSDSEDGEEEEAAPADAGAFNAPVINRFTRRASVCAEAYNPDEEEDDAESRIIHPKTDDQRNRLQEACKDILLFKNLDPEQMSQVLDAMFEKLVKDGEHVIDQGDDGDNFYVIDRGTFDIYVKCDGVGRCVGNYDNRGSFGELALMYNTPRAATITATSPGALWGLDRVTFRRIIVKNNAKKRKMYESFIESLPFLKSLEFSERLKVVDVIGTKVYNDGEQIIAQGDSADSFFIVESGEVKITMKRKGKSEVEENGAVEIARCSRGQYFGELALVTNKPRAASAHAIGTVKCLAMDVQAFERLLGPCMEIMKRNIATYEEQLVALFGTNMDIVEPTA

For “RIIβ (PKA regulatory subunit IIβ) (from UniProt P31323) Cα L206R, 8-Br-cAMP”, the “other: densitometry, relative units” value with golgin A3 is “lost; reference 1.8 ± 0.2”.

“golgin A3 (from UniProt Q08378 1-1498) (natural protein)” displayed a densitometry of golgin A3 co-precipitated with RIIβ-FLAG (WB) in experiment [1] of 1.8.

These data come from publication PMC7895437.
